One substance from US20040180389A1 can be followed below.

This assay concerns the target murine GM-CSF receptor (on FDC-P1 cells) (murine) (UniProt Q00941). Description: cell-based or functional assay.
UniProt Q00941, sequence (Q00941 30-388, chain 1 of 2): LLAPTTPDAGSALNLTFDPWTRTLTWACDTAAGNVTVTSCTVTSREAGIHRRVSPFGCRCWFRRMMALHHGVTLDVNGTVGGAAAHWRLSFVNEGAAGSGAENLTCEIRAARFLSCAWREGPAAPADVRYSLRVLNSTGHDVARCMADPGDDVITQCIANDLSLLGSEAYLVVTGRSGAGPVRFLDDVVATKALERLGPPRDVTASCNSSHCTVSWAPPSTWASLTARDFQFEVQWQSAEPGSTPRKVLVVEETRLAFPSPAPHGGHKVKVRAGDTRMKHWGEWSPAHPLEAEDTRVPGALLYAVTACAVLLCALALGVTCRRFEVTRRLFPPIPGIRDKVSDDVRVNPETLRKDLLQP
UniProt Q00941, sequence (P26955 23-896, chain 2 of 2, further chain): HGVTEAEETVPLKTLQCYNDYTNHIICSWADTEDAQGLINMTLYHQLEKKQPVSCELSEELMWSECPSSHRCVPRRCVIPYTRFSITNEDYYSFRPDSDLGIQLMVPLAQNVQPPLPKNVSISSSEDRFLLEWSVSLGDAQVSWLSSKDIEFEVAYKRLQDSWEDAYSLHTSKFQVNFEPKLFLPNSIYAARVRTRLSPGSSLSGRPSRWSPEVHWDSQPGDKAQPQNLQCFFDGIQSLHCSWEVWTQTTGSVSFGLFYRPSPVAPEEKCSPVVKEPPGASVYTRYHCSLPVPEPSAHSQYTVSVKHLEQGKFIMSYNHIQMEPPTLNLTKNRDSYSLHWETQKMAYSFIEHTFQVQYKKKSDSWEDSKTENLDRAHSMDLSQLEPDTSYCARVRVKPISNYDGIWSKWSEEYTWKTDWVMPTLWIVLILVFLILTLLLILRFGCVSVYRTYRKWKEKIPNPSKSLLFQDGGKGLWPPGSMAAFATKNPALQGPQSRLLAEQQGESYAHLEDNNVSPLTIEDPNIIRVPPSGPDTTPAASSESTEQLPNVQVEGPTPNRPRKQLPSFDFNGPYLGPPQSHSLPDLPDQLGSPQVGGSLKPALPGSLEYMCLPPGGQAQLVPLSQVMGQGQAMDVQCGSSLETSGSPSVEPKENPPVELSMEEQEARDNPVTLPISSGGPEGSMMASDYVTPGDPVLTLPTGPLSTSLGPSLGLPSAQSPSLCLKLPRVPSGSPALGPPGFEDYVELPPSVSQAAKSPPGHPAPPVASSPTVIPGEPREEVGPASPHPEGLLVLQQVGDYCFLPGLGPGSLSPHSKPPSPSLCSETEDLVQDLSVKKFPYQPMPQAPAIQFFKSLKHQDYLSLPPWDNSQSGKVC

As to “GPI-GM-CSF (murine GM-CSF fused to the S. cerevisiae Gas1 GPI modification signal sequence, expressed in yeast clone SC-GM-GPI) (from UniProt P01587 18-141; P22146 474-528) (other; the values are: proliferation increase vs soluble GM-CSF)”, the proliferation of FDC-P1 cells (Biotrak BrdU cell proliferation ELISA), 10 ng GM-CSF equivalent per well turned out to be 25%.
